According to publication PMC12403663:

Tests used:
[1] = target: human serum albumin (HSA) (Homo sapiens, UniProt P02768 25-609); test: electrochemical aptasensor
[2] = target: retinol-binding protein 4 (RBP4, also printed RPB4) (UniProt P02753 19-201); test: electrochemical aptasensor

Chain of human serum albumin (HSA) (P02768 25-609): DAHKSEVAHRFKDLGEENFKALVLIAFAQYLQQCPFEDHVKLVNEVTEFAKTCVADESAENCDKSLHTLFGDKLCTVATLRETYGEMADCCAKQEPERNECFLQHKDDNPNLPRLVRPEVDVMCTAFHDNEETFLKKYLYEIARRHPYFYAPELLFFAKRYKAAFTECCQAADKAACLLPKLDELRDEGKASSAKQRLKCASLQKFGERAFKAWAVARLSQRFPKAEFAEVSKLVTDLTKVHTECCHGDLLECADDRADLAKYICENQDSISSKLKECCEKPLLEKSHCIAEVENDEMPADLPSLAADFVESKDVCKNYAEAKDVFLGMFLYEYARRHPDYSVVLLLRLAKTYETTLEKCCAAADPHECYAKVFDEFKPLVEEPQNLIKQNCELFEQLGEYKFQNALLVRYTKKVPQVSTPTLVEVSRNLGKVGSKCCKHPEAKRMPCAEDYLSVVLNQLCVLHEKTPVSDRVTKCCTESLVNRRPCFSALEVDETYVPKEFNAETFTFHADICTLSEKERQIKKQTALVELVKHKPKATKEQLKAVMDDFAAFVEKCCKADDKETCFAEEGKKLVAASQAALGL

Binder	binding result [1]	binding result [2]
TGCGGTTGTAGTACTCGTGGCCG (ssDNA, 5' Amino C6; 3' Thiol C6 SS) [HSA-binding aptamer]	binds	–
RBP4-binding aptamer (ssDNA, 5' Amino C6; 3' Thiol C6 SS) DNA: ATACCAGCTTATTCAATTACAGTAGTGAGGGGTCCGTCGTGGGGTAGTTGGGTCGTGGAGATAGTAAGTGC	–	binds
